Results reported in IntAct's records for PubMed 28062662.

B1: Glutaryl-CoA dehydrogenase, mitochondrial (Homo sapiens), Q92947 (parent)
chain: MALRGVSVRLLSRGPGLHVLRTWVSSAAQTEKGGRTQSQLAKSSRPEFDWQDPLVLEEQLTTDEILIRDTFRTYCQERLMPRILLANRNEVFHREIISEMGELGVLGPTIKGYGCAGVSSVAYGLLARELERVDSGYRSAMSVQSSLVMHPIYAYGSEEQRQKYLPQLAKGELLGCFGLTEPNSGSDPSSMETRAHYNSSNKSYTLNGTKTWITNSPMADLFVVWARCEDGCIRGFLLEKGMRGLSAPRIQGKFSLRASATGMIIMDGVEVPEENVLPGASSLGGPFGCLNNARYGIAWGVLGASEFCLHTARQYALDRMQFGVPLARNQLIQKKLADMLTEITLGLHACLQLGRLKDQDKAAPEMVSLLKRNNCGKALDIARQARDMLGGNGISDEYHVIRHAMNLEAVNTYEGTHDIHALILGRAITGIQAFTASK
partner: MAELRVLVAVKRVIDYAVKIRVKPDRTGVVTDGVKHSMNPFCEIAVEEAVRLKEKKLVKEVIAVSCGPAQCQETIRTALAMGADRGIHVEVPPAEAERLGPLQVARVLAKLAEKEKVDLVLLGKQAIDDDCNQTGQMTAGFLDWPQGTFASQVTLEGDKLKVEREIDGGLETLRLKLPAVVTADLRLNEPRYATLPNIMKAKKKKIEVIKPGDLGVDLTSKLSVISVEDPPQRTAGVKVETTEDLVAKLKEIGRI

Variants of: B1
Conditions: with etfb_human ETFB

Row | effect of a mutation on the interaction | Variant
1 | increasing interaction strength | MALRGVSVRLLSRGPGLHVLRTWVSSAAQTEKGGRTQSQLAKSSRPEFDWQDPLVLEEQLTTDEILIRDTFRTYCQERLMPRILLANCNEVFHREIISEMGELGVLGPTIKGYGCAGVSSVAYGLLARELERVDSGYRSAMSVQSSLVMHPIYAYGSEEQRQKYLPQLAKGELLGCFGLTEPNSGSDPSSMETRAHYNSSNKSYTLNGTKTWITNSPMADLFVVWARCEDGCIRGFLLEKGMRGLSAPRIQGKFSLRASATGMIIMDGVEVPEENVLPGASSLGGPFGCLNNARYGIAWGVLGASEFCLHTARQYALDRMQFGVPLARNQLIQKKLADMLTEITLGLHACLQLGRLKDQDKAAPEMVSLLKRNNCGKALDIARQARDMLGGNGISDEYHVIRHAMNLEAVNTYEGTHDIHALILGRAITGIQAFTASK [R88C]
2 | increasing interaction strength | MALRGVSVRLLSRGPGLHVLRTWVSSAAQTEKGGRTQSQLAKSSRPEFDWQDPLVLEEQLTTDEILIRDTFRTYCQERLMPRILLANRNEVFHREIISEMGELGVLGPTIKGYGCAGVSSVAYGLLARELERVDSGYRSAMSVQSSLVMHPIYAYGSEEQQQKYLPQLAKGELLGCFGLTEPNSGSDPSSMETRAHYNSSNKSYTLNGTKTWITNSPMADLFVVWARCEDGCIRGFLLEKGMRGLSAPRIQGKFSLRASATGMIIMDGVEVPEENVLPGASSLGGPFGCLNNARYGIAWGVLGASEFCLHTARQYALDRMQFGVPLARNQLIQKKLADMLTEITLGLHACLQLGRLKDQDKAAPEMVSLLKRNNCGKALDIARQARDMLGGNGISDEYHVIRHAMNLEAVNTYEGTHDIHALILGRAITGIQAFTASK [R161Q]
3 | increasing interaction strength | MALRGVSVRLLSRGPGLHVLRTWVSSAAQTEKGGRTQSQLAKSSRPEFDWQDPLVLEEQLTTDEILIRDTFRTYCQERLMPRILLANRNEVFHREIISEMGELGVLGPTIKGYGCAGVSSVAYGLLARELERVDSGYRSAMSVQSSLVMHPIYAHGSEEQRQKYLPQLAKGELLGCFGLTEPNSGSDPSSMETRAHYNSSNKSYTLNGTKTWITNSPMADLFVVWARCEDGCIRGFLLEKGMRGLSAPRIQGKFSLRASATGMIIMDGVEVPEENVLPGASSLGGPFGCLNNARYGIAWGVLGASEFCLHTARQYALDRMQFGVPLARNQLIQKKLADMLTEITLGLHACLQLGRLKDQDKAAPEMVSLLKRNNCGKALDIARQARDMLGGNGISDEYHVIRHAMNLEAVNTYEGTHDIHALILGRAITGIQAFTASK [Y155H]
4 | increasing interaction strength | MALRGVSVRLLSRGPGLHVLRTWVSSAAQTEKGGRTQSQLAKSSRPEFDWQDPLVLEEQLTTDEILIRDTFRTYCQERLMPRILLANRNEVFHREIISEMGELGVLGPTIKGYGYAGVSSVAYGLLARELERVDSGYRSAMSVQSSLVMHPIYAYGSEEQRQKYLPQLAKGELLGCFGLTEPNSGSDPSSMETRAHYNSSNKSYTLNGTKTWITNSPMADLFVVWARCEDGCIRGFLLEKGMRGLSAPRIQGKFSLRASATGMIIMDGVEVPEENVLPGASSLGGPFGCLNNARYGIAWGVLGASEFCLHTARQYALDRMQFGVPLARNQLIQKKLADMLTEITLGLHACLQLGRLKDQDKAAPEMVSLLKRNNCGKALDIARQARDMLGGNGISDEYHVIRHAMNLEAVNTYEGTHDIHALILGRAITGIQAFTASK [C115Y]
5 | increasing interaction strength | MALRGVSVRLLSRGPGLHVLRTWVSSAAQTEKGGRTQSQLAKSSRPEFDWQDPLVLEEQLTTDEILIRDTFRTYCQERLMPRILLANRNEVFHREIISEMRELGVLGPTIKGYGCAGVSSVAYGLLARELERVDSGYRSAMSVQSSLVMHPIYAYGSEEQRQKYLPQLAKGELLGCFGLTEPNSGSDPSSMETRAHYNSSNKSYTLNGTKTWITNSPMADLFVVWARCEDGCIRGFLLEKGMRGLSAPRIQGKFSLRASATGMIIMDGVEVPEENVLPGASSLGGPFGCLNNARYGIAWGVLGASEFCLHTARQYALDRMQFGVPLARNQLIQKKLADMLTEITLGLHACLQLGRLKDQDKAAPEMVSLLKRNNCGKALDIARQARDMLGGNGISDEYHVIRHAMNLEAVNTYEGTHDIHALILGRAITGIQAFTASK [G101R]
6 | increasing interaction strength | MALRGVSVRLLSRGPGLHVLRTWVSSAAQTEKGGRTQSQLAKSSRPEFDCQDPLVLEEQLTTDEILIRDTFRTYCQERLMPRILLANRNEVFHREIISEMGELGVLGPTIKGYGCAGVSSVAYGLLARELERVDSGYRSAMSVQSSLVMHPIYAYGSEEQRQKYLPQLAKGELLGCFGLTEPNSGSDPSSMETRAHYNSSNKSYTLNGTKTWITNSPMADLFVVWARCEDGCIRGFLLEKGMRGLSAPRIQGKFSLRASATGMIIMDGVEVPEENVLPGASSLGGPFGCLNNARYGIAWGVLGASEFCLHTARQYALDRMQFGVPLARNQLIQKKLADMLTEITLGLHACLQLGRLKDQDKAAPEMVSLLKRNNCGKALDIARQARDMLGGNGISDEYHVIRHAMNLEAVNTYEGTHDIHALILGRAITGIQAFTASK [W50C]
7 | increasing interaction strength | MALRGVSVRLLSRGPGLHVLRTWVSSAAQTEKGGRTQSQLAKSSRPEFDWQDPLVLEEQLTTDEILIRDTFRTYCQERLMPRILLANRNKVFHREIISEMGELGVLGPTIKGYGCAGVSSVAYGLLARELERVDSGYRSAMSVQSSLVMHPIYAYGSEEQRQKYLPQLAKGELLGCFGLTEPNSGSDPSSMETRAHYNSSNKSYTLNGTKTWITNSPMADLFVVWARCEDGCIRGFLLEKGMRGLSAPRIQGKFSLRASATGMIIMDGVEVPEENVLPGASSLGGPFGCLNNARYGIAWGVLGASEFCLHTARQYALDRMQFGVPLARNQLIQKKLADMLTEITLGLHACLQLGRLKDQDKAAPEMVSLLKRNNCGKALDIARQARDMLGGNGISDEYHVIRHAMNLEAVNTYEGTHDIHALILGRAITGIQAFTASK [E90K]
8 | increasing interaction strength | MALRGVSVRLLSRGPGLHVLRTWVSSAAQTEKGGRTQSQLAKSSRPEFDWQDPLVLEEQLTTDEILIRDTFRTYCQERLMPRILLANRNEVFHREIISEMGELGVLGPTIKGYGCAGVSSVAYGLLARELERVDSGYRSAMSVQSSLVMHPIYAYGSEEQRQKYLPQLAKGELLGCFGLTEPNSGSDPSSMETRAHYNSSNKSYTLNGTKTWITNSPMADLFVVWAPCEDGCIRGFLLEKGMRGLSAPRIQGKFSLRASATGMIIMDGVEVPEENVLPGASSLGGPFGCLNNARYGIAWGVLGASEFCLHTARQYALDRMQFGVPLARNQLIQKKLADMLTEITLGLHACLQLGRLKDQDKAAPEMVSLLKRNNCGKALDIARQARDMLGGNGISDEYHVIRHAMNLEAVNTYEGTHDIHALILGRAITGIQAFTASK [R227P]
9 | decreasing interaction strength | MALRGVSVRLLSRGPGLHVLRTWVSSAAQTEKGGRTQSQLAKSSRPEFDWQDPLVLEEQLTTDEILIRDTFRTYCQERLMPRILLANRNEVFHREIISEMGELGVLGPTIKGYGCAGVSSVAYGLLARELERVDSGYRSAMSVQSSLVMHPIYAYGSEEQRQKYLPQLAKGELLGCFGLTEPNSGSDPSSMETRAHYNSSNKSYTLNGTKTWITNSLMADLFVVWARCEDGCIRGFLLEKGMRGLSAPRIQGKFSLRASATGMIIMDGVEVPEENVLPGASSLGGPFGCLNNARYGIAWGVLGASEFCLHTARQYALDRMQFGVPLARNQLIQKKLADMLTEITLGLHACLQLGRLKDQDKAAPEMVSLLKRNNCGKALDIARQARDMLGGNGISDEYHVIRHAMNLEAVNTYEGTHDIHALILGRAITGIQAFTASK [P217L]
10 | decreasing interaction strength | MALRGVSVRLLSRGPGLHVLRTWVSSAAQTEKGGRTQSQLAKSSRPEFDWQDPLVLEEQLTTDEILIRDTFRTYCQERLMPRILLANRNEVFHREIISEMGELGVLGPTIKGYGCAGVLSVAYGLLARELERVDSGYRSAMSVQSSLVMHPIYAYGSEEQRQKYLPQLAKGELLGCFGLTEPNSGSDPSSMETRAHYNSSNKSYTLNGTKTWITNSPMADLFVVWARCEDGCIRGFLLEKGMRGLSAPRIQGKFSLRASATGMIIMDGVEVPEENVLPGASSLGGPFGCLNNARYGIAWGVLGASEFCLHTARQYALDRMQFGVPLARNQLIQKKLADMLTEITLGLHACLQLGRLKDQDKAAPEMVSLLKRNNCGKALDIARQARDMLGGNGISDEYHVIRHAMNLEAVNTYEGTHDIHALILGRAITGIQAFTASK [S119L]
11 | decreasing interaction strength | MALRGVSVRLLSRGPGLHVLRTWVSSAAQTEKGGRTQSQLAKSSRPEFDWQDPLVLEEQLTTDEILIRDTFRTYCQERLMPRILLANRNEVFHREIISEMGELGVLGPTIKGYGCARVSSVAYGLLARELERVDSGYRSAMSVQSSLVMHPIYAYGSEEQRQKYLPQLAKGELLGCFGLTEPNSGSDPSSMETRAHYNSSNKSYTLNGTKTWITNSPMADLFVVWARCEDGCIRGFLLEKGMRGLSAPRIQGKFSLRASATGMIIMDGVEVPEENVLPGASSLGGPFGCLNNARYGIAWGVLGASEFCLHTARQYALDRMQFGVPLARNQLIQKKLADMLTEITLGLHACLQLGRLKDQDKAAPEMVSLLKRNNCGKALDIARQARDMLGGNGISDEYHVIRHAMNLEAVNTYEGTHDIHALILGRAITGIQAFTASK [G117R]
12 | increasing interaction strength | MALRGVSVRLLSRGPGLHVLRTWVSSAAQTEKGGRTQSQLAKSSRPEFDWQDPLVLEEQLTTDEILIRDTFRTYCQERLMPRILLANRNEVFHREIISEMGELGVLGPTIKGHGCAGVSSVAYGLLARELERVDSGYRSAMSVQSSLVMHPIYAYGSEEQRQKYLPQLAKGELLGCFGLTEPNSGSDPSSMETRAHYNSSNKSYTLNGTKTWITNSPMADLFVVWARCEDGCIRGFLLEKGMRGLSAPRIQGKFSLRASATGMIIMDGVEVPEENVLPGASSLGGPFGCLNNARYGIAWGVLGASEFCLHTARQYALDRMQFGVPLARNQLIQKKLADMLTEITLGLHACLQLGRLKDQDKAAPEMVSLLKRNNCGKALDIARQARDMLGGNGISDEYHVIRHAMNLEAVNTYEGTHDIHALILGRAITGIQAFTASK [Y113H]
13 | increasing interaction strength | MALRGVSVRLLSRGPGLHVLRTWVSSAAQTEKGGRTQSQLAKSSRPEFDWQDPLVLEEQLTTDEILIRDTFRTYCQERLMPRILLANRNEVFHLEIISEMGELGVLGPTIKGYGCAGVSSVAYGLLARELERVDSGYRSAMSVQSSLVMHPIYAYGSEEQRQKYLPQLAKGELLGCFGLTEPNSGSDPSSMETRAHYNSSNKSYTLNGTKTWITNSPMADLFVVWARCEDGCIRGFLLEKGMRGLSAPRIQGKFSLRASATGMIIMDGVEVPEENVLPGASSLGGPFGCLNNARYGIAWGVLGASEFCLHTARQYALDRMQFGVPLARNQLIQKKLADMLTEITLGLHACLQLGRLKDQDKAAPEMVSLLKRNNCGKALDIARQARDMLGGNGISDEYHVIRHAMNLEAVNTYEGTHDIHALILGRAITGIQAFTASK [R94L]
